Measured values from PMC8569185 (Frontiers in Pharmacology, 2021).

B1: blenniorphin 1–17 (peptide)
peptide: YGGFMRRVGRPEWLVDS
notes: numbers count on: the dyn A 1–17-like peptide, not the precursor; Free N-terminus and free C-terminal carboxyl as printed (NH2-...-COOH); also called blenniorphin-17; source: synthetic peptide (Fmoc-based SPPS, RP-HPLC purified)
B2: blenniorphin 1–13 (peptide)
peptide: YGGFMRRVGRPEW
notes: numbers count on: the dyn A 1–17-like peptide, not the precursor; Free N-terminus and free C-terminal carboxyl as printed (NH2-...-COOH); also called blenniorphin-13; source: synthetic peptide (Boc-based SPPS, RP-HPLC purified)
B3: blenniorphin 1–8 (peptide)
peptide: YGGFMRRV
notes: numbers count on: the dyn A 1–17-like peptide, not the precursor; Free N-terminus and free C-terminal carboxyl as printed (NH2-...-COOH); source: synthetic peptide (Boc-based SPPS, RP-HPLC purified)

These molecules were tested against T1, mouse κ-opioid receptor (mouse, UniProt P33534 1-380) (assay: cell-based or functional assay). Details: not given.
T1 sequence (P33534 whole entry): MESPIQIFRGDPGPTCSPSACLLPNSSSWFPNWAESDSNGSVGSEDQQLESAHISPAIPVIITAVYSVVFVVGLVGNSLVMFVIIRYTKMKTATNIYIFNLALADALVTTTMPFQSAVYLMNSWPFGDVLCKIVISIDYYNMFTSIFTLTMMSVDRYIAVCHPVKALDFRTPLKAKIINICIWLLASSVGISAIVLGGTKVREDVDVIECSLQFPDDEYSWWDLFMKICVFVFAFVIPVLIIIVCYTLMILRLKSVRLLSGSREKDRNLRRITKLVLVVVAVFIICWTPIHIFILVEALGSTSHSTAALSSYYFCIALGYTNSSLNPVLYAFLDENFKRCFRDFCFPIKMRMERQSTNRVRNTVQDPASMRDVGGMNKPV

**Q.** Which results are given for B1?
**A.** EC50 of inhibition of forskolin-stimulated cAMP accumulation (HTRF cAMP-Gi kit), HEK293 cells stably expressing mouse KOR: 15.2 nM; Emax of cAMP inhibition, normalised to 10 µM dyn A 1–13 (100%), HEK293 cells stably expressing mouse KOR: 97.5%

**Q.** Which “EC50 of inhibition of forskolin-stimulated cAMP accumulation (HTRF cAMP-Gi kit), HEK293 cells stably expressing mouse KOR” value does the source give for B2 here?
**A.** 5 nM

**Q.** And the “Emax of cAMP inhibition, normalised to 10 µM dyn A 1–13 (100%), HEK293 cells stably expressing mouse KOR” value?
**A.** 98.5%

**Q.** B3 was tested. Which “EC50 of inhibition of forskolin-stimulated cAMP accumulation (HTRF cAMP-Gi kit), HEK293 cells stably expressing mouse KOR” value did it give?
**A.** 3.6 nM

**Q.** What about the “Emax of cAMP inhibition, normalised to 10 µM dyn A 1–13 (100%), HEK293 cells stably expressing mouse KOR” value of the same molecule?
**A.** 82.4%

These molecules were tested against mouse KOR (Mus musculus, UniProt P33534) (assay: cell-based). Details: HEK293, read-out: Efficacy cAMP Emax ± SD.
mouse KOR, sequence (P33534 whole entry): as above

**Q.** How did the Emax at 10 µM turn out when CSCC[C@H](NC(=O)[C@H](Cc1ccccc1)NC(=O)CNC(=O)CNC(=O)[C@@H](N)Cc1ccc(O)cc1)C(=O)N[C@@H](CCCNC(=N)N)C(=O)N[C@@H](CCCNC(=N)N)C(=O)N[C@H](C(=O)O)C(C)C [blenniorphin 1–8] was run?
**A.** 82.4 ± 9.8%

**Q.** H-YGGFMRRVGRPEW-OH [blenniorphin 1–13] was tested. Which Emax at 10 µM did it give?
**A.** 98.5 ± 9.1%

**Q.** For “H-YGGFMRRVGRPEWLVDS-OH [blenniorphin 1–17]”, which Emax at 10 µM is on record?
**A.** 97.5 ± 11%

Each molecule was assayed against mouse KOR-EGFP (mouse, UniProt P33534 1-380) (assay: cell-based or functional assay). Details: not given.
mouse KOR-EGFP, sequence (P33534 whole entry): as above

**Q.** B1 was tested. Which “extent of β-arrestin-2-Nluc recruitment to KOR-EGFP (BRET) at 10 µM peptide, relative to 10 µM dyn A 1–13 (100%)” value (“extent … relative to 10 µM dyn A 1–13 (100%)” for short) did it give?
**A.** ~30 % lower than dyn A 1–13

**Q.** For B2, which “extent … relative to 10 µM dyn A 1–13 (100%)” value is on record?
**A.** ~30 % lower than dyn A 1–13

**Q.** With B3 as the molecule, how does the “extent … relative to 10 µM dyn A 1–13 (100%)” value read?
**A.** ~30 % lower than dyn A 1–13

Each molecule was assayed against T1, mouse κ-opioid receptor (assay: radioligand binding; displacement of [3H]-diprenorphine (1 nM) from HEK293 cell membranes stably expressing mouse KOR (6.3–7.6 µg/assay) by peptides (0.1 nM–30 µM); 50 mM Tris-HCl pH 7.4, 10 mM MgCl2, 0.1% BSA; 1.5 h at 37°C; filtration; Ki from IC50 by Cheng and Prusoff). Details: one partner purified.

**Q.** How did the Ki turn out when B1 was run?
**A.** 85.8 nM

**Q.** For B2, which Ki is on record?
**A.** 116 nM

**Q.** For B3, which Ki is on record?
**A.** 3.3 nM
